Measured values as given in US20220073920.
Like-named read-outs stand apart in the source and are kept apart here.

Experiments:
[1] = tested on: Human adenovirus type 2 whole virion (HAdV-2) (Human adenovirus 2); settings: ELASA; DPBS + 3 mM MgCl2 + 20 mM NaCl (printed NaCl2), pH 7.4, room temperature; n=7
[2] = tested on: Human adenovirus type 2 whole virion (HAdV-2) (Human adenovirus 2); settings: ELASA; DPBS + 3 mM MgCl2 + 20 mM NaCl (printed NaCl2), pH 7.4, room temperature; n=6

Sequence | Kd [1] [nM] | Kd [2] [nM]
GTGCCAGCTATGCCATTGGGCGGGTCGTCCAATTCGAGAGGTCCCCTAGCGTCTATCTCTGCTGC [aptamer 20] | 75.9 | 
GTGCCAGCTATGCCATTGGGGGACAATATCGCAGTGCATCTTCCTCTAGCGTCTATCTCTGCTGC [aptamer 10] |  | 3.6
